Experimental data published in paper PMC2134809 (The Journal of Cell Biology, 1997).

Target: Rabbit skeletal muscle actin (rabbit, UniProt P68135 1-377)
Assay: co-sedimentation

Kd: 2.3 ± 0.3 µM
stoichiometry N: 1 actin monomer per Arp2/3-binding site
B1: Arp2/3 complex (complex)
chain 1: not shown
chain 2: not shown
chain 3: MSANIENFKDSAKLTCITCHAFNRDRTLIAICPNNNEVHIYQKQGAEWVKNAVLVEHDQAVTGIDWGHKENRIVTCSQDRNAYVWSLGADGKWKPTLVLLRITRAATHVKWSPNEEKFAVATGAKCVSVCYFEEANDWWVSKHIKLHKSTVLNVAWHPNNIFLATAASDFKARIFSAFIKGVDKRPENTPFGDKLPFGEMLAEYSCGGWVHGVSWSPSGEWLSFVSHDSAISFVNISTGREAVPQRLSLSGLPYRVLAFLNPTDIIAAGYDCNPALFRLSGQTWAFVKNVDESSAAARAAPGAAQSAMNMWQKKADLGTTSNETQLETKHQNAISGLTALAPNQFSTTAVDGKLIIWTVRA
chain 4: MILLETGSRILEEVIRQRVQSDKREAVDITLADFDGVQYHIATNATQRNLVTVSISWPCISQMKQFGTDAKVQSFYGPLVTSAETGYDYTLQFDLDNLADKDSLPGKIALFKRTVVAAPLEAVFDGKPGLPPVITINYRTNEAVYLKREGNNVAVIFSINFKDKDDIVIGKVFLQELEAARKTINNAPAVTFSQRERPLELKSVQNVYEGEDQGFVTFLLFGPHTHESRRGKTIDTIHLFRNYLHYHIKCSKAFLHTRMRLRVEELLQVLNRAKIKNANKEMKTMSGRTFKRA
chain 5: MCGMGVLPIKTKYKGPAPRYTGPADQPDIIDEAISFFKANVLFRNYEVKGPADRVLIYLTLYISQAINQMVNQSKGGAQKNLFNLAIQNFAVPGDKNFALAGFVSNPANRAEADQIRQYLTQLRQETGDRLIEAVYAFGENEPSKWWMCFSKRKFLNKNL
chain 6: METPEKPERSDAEFQQSLDARQREVNNALNTGNPGRALSAALQDPPLGCKNQQIRAVVNVLTSVKDADMQKNIDALSPTDLDTLMKYIYRGLEDGENSTSLLKWHEAVTKKGGLGCIVRALAERKAL
